The text below walks through data of the supplement of paper PMC9112550, “Optimization of the antimicrobial peptide Bac7 by deep mutational scanning” (BMC Biology, 2022).

The data set deals with Escherichia coli TOP10. The experiment in a line: shrunken log2 fold change of peptide-encoding DNA abundance (4.5 h post-induction vs induction); higher = less antimicrobial activity (less host growth inhibition). The note with it: time post-induction: 4.5 h; library: site-saturation at positions 5, 18, 19, 20.
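Note: peptides expressed intracellularly from a pBAD plasmid library in pooled LB shake-flask culture, induced with 0.3% L-arabinose, DNA abundance read by NGS, three biological replicates, DESeq2 with apeglm shrinkage.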

In the case of RRIRQRPPRLPRPRPRPGYDPRP, the “shrunken log2 fold change” value is -0.0645. On to RRIRTRPPRLPRPRPRPYACPRP, for which the “shrunken log2 fold change” value was -0.216. For RRIRSRPPRLPRPRPRPMKTPRP, the “shrunken log2 fold change” value was determined as 0.0178. In the case of RRIRTRPPRLPRPRPRPRLYPRP, the “shrunken log2 fold change” value amounted to 0.0155. With RRIRTRPPRLPRPRPRPEAPPRP, the “shrunken log2 fold change” value is 0.139. For RRIRQRPPRLPRPRPRPYSFPRP, the “shrunken log2 fold change” value is -0.141.

With RRIRIRPPRLPRPRPRPNLTPRP, the “shrunken log2 fold change” value was determined as 0.0979.

Turning to RRIRVRPPRLPRPRPRPDQQPRP, the “shrunken log2 fold change” value was found to be 0.021. Take RRIRPRPPRLPRPRPRPAIWPRP: the “shrunken log2 fold change” value was 0.405. With RRIRIRPPRLPRPRPRPCSHPRP, the “shrunken log2 fold change” value stood at 0.0454.

For the sequence RRIRARPPRLPRPRPRPIMKPRP, the “shrunken log2 fold change” value is 0.102.

In the case of RRIRGRPPRLPRPRPRPLFFPRP, the “shrunken log2 fold change” value was 0.415. On to RRIRGRPPRLPRPRPRPERIPRP, for which the “shrunken log2 fold change” value was -0.0324.

Regarding RRIRDRPPRLPRPRPRPTRFPRP, the “shrunken log2 fold change” value stood at 0.0657.

Consider RRIRCRPPRLPRPRPRPQIRPRP, for which the “shrunken log2 fold change” value is -0.332. Take RRIRHRPPRLPRPRPRPHYAPRP: the “shrunken log2 fold change” value was -0.992. RRIRGRPPRLPRPRPRPSFAPRP: the “shrunken log2 fold change” value worked out at 0.723. RRIRRRPPRLPRPRPRPQCRPRP: the “shrunken log2 fold change” value worked out at 0.123. For RRIRYRPPRLPRPRPRPPPSPRP the value was 0.936. For RRIRARPPRLPRPRPRPKGNPRP the value was 0.0299; for RRIRFRPPRLPRPRPRPEQFPRP, -0.115; for RRIRVRPPRLPRPRPRPHCEPRP, -0.0141.

On to RRIRDRPPRLPRPRPRPNWMPRP, for which the “shrunken log2 fold change” value is -0.0161. On to RRIRHRPPRLPRPRPRPLPFPRP, for which the “shrunken log2 fold change” value is -0.73. For RRIRTRPPRLPRPRPRPVIRPRP, the “shrunken log2 fold change” value is -0.176.

For RRIRWRPPRLPRPRPRPDQIPRP, the “shrunken log2 fold change” value worked out at 0.134.

Take RRIRARPPRLPRPRPRPPSWPRP: the “shrunken log2 fold change” value stood at 0.736.

For RRIRSRPPRLPRPRPRPAIWPRP, the “shrunken log2 fold change” value is 0.463.

On to RRIRMRPPRLPRPRPRPKLEPRP, for which the “shrunken log2 fold change” value was determined as 1.14. For RRIRARPPRLPRPRPRPAPCPRP, the “shrunken log2 fold change” value stood at 0.638. With RRIRKRPPRLPRPRPRPQPTPRP, the “shrunken log2 fold change” value was determined as 0.5. Regarding RRIRSRPPRLPRPRPRPSGNPRP, the “shrunken log2 fold change” value is -0.571. With RRIRERPPRLPRPRPRPYPPPRP, the “shrunken log2 fold change” value was -0.942. Turning to RRIRARPPRLPRPRPRPEVQPRP, the “shrunken log2 fold change” value amounted to 0.76. As to RRIRQRPPRLPRPRPRPGLFPRP, the “shrunken log2 fold change” value is -0.176. With RRIRYRPPRLPRPRPRPELTPRP, the “shrunken log2 fold change” value is 0.075.

For RRIRSRPPRLPRPRPRPTIVPRP, the “shrunken log2 fold change” value is 0.148. For the sequence RRIRWRPPRLPRPRPRPQVAPRP, the “shrunken log2 fold change” value is 0.472. Regarding RRIRPRPPRLPRPRPRPGAQPRP, the “shrunken log2 fold change” value was 0.198. Consider RRIRIRPPRLPRPRPRPHVKPRP, for which the “shrunken log2 fold change” value was -0.213. With RRIRTRPPRLPRPRPRPCIIPRP, the “shrunken log2 fold change” value was -0.0804.

Turning to RRIRKRPPRLPRPRPRPCCFPRP, the “shrunken log2 fold change” value came to 0.112.

In the case of RRIRDRPPRLPRPRPRPISFPRP, the “shrunken log2 fold change” value is -0.0563. On to RRIRIRPPRLPRPRPRPKQVPRP, for which the “shrunken log2 fold change” value is -0.118.

With RRIRGRPPRLPRPRPRPHSSPRP, the “shrunken log2 fold change” value was -0.144. Consider RRIRFRPPRLPRPRPRPQQFPRP, for which the “shrunken log2 fold change” value stood at 0.0682. As to RRIRNRPPRLPRPRPRPQWRPRP, the “shrunken log2 fold change” value came to 0.179. In the case of RRIRFRPPRLPRPRPRPGWRPRP, the “shrunken log2 fold change” value was determined as 0.536.

Take RRIRYRPPRLPRPRPRPLSVPRP: the “shrunken log2 fold change” value was -0.576. In the case of RRIRHRPPRLPRPRPRPVCIPRP, the “shrunken log2 fold change” value was -1.22. For the sequence RRIRWRPPRLPRPRPRPILVPRP, the “shrunken log2 fold change” value came out at 0.0752. In the case of RRIRERPPRLPRPRPRPTYAPRP, the “shrunken log2 fold change” value is -0.0017. Take RRIRVRPPRLPRPRPRPGWHPRP: the “shrunken log2 fold change” value amounted to 0.132.

Turning to RRIRDRPPRLPRPRPRPVWGPRP, the “shrunken log2 fold change” value worked out at 0.67.

For RRIRQRPPRLPRPRPRPELPPRP, the “shrunken log2 fold change” value was -0.0769. Take RRIRDRPPRLPRPRPRPRGQPRP: the “shrunken log2 fold change” value came to 0.141. For the sequence RRIRWRPPRLPRPRPRPRVHPRP, the “shrunken log2 fold change” value came to 0.341. Regarding RRIRSRPPRLPRPRPRPYFGPRP, the “shrunken log2 fold change” value was -0.642.

Take RRIRQRPPRLPRPRPRPKTNPRP: the “shrunken log2 fold change” value was -0.117. Turning to RRIRGRPPRLPRPRPRPGANPRP, the “shrunken log2 fold change” value stood at 0.874. Then RRIRGRPPRLPRPRPRPHLTPRP, with 0.357. For RRIRARPPRLPRPRPRPPKTPRP, the “shrunken log2 fold change” value was 0.12. For RRIRHRPPRLPRPRPRPSPDPRP, the “shrunken log2 fold change” value was -0.293.

RRIRLRPPRLPRPRPRPCSCPRP: the “shrunken log2 fold change” value stood at 0.00383.

As to RRIRLRPPRLPRPRPRPKSPPRP, the “shrunken log2 fold change” value turned out to be 0.0414. Regarding RRIRSRPPRLPRPRPRPPRAPRP, the “shrunken log2 fold change” value turned out to be 0.567.

As for RRIRYRPPRLPRPRPRPYEKPRP, the “shrunken log2 fold change” value was -0.117. Regarding RRIRPRPPRLPRPRPRPDMDPRP, the “shrunken log2 fold change” value was -0.21. With RRIRTRPPRLPRPRPRPRMRPRP, the “shrunken log2 fold change” value was 0.753. RRIRHRPPRLPRPRPRPVPAPRP: the “shrunken log2 fold change” value is -0.0665. Consider RRIRDRPPRLPRPRPRPKIKPRP, for which the “shrunken log2 fold change” value came to 2.05. On to RRIRIRPPRLPRPRPRPAVIPRP, for which the “shrunken log2 fold change” value amounted to 0.0759. As to RRIRIRPPRLPRPRPRPGTSPRP, the “shrunken log2 fold change” value was -0.0281. As for RRIRARPPRLPRPRPRPYCGPRP, the “shrunken log2 fold change” value is -0.192. With RRIRTRPPRLPRPRPRPWWIPRP, the “shrunken log2 fold change” value was -0.869. On to RRIRHRPPRLPRPRPRPFMEPRP, for which the “shrunken log2 fold change” value was -1. In the case of RRIRNRPPRLPRPRPRPVERPRP, the “shrunken log2 fold change” value stood at 0.265. For the sequence RRIRLRPPRLPRPRPRPPILPRP, the “shrunken log2 fold change” value was -0.287. Consider RRIRERPPRLPRPRPRPMCVPRP, for which the “shrunken log2 fold change” value was -0.461. Then RRIRPRPPRLPRPRPRPTTVPRP, with 0.0207. Turning to RRIRKRPPRLPRPRPRPRCKPRP, the “shrunken log2 fold change” value turned out to be 0.00437. For RRIRRRPPRLPRPRPRPLDGPRP the value was 0.0894. On to RRIRHRPPRLPRPRPRPVPPPRP, for which the “shrunken log2 fold change” value is 0.244. RRIRPRPPRLPRPRPRPVNEPRP: the “shrunken log2 fold change” value was -0.00503. RRIRKRPPRLPRPRPRPTCGPRP: the “shrunken log2 fold change” value came to 0.561. Consider RRIRGRPPRLPRPRPRPYSFPRP, for which the “shrunken log2 fold change” value was 0.0271. Consider RRIRKRPPRLPRPRPRPCLVPRP, for which the “shrunken log2 fold change” value was determined as 0.123. As to RRIRDRPPRLPRPRPRPKYAPRP, the “shrunken log2 fold change” value stood at 0.0137. Then RRIRERPPRLPRPRPRPWGYPRP, with -0.279; and RRIRGRPPRLPRPRPRPWLNPRP, with -0.00435. Consider RRIRVRPPRLPRPRPRPWGYPRP, for which the “shrunken log2 fold change” value is -0.0139.
